Test results from the supplement of paper PMC12042874.
± gives the uncertainty stated by the source.

Assay: amyloid nucleation score (Sup35N fusion, yeast selection) (log enrichment); library NNK2; higher = more nucleation; inactive = no reads after selection
In short: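 Psi-negative yeast expressed Sup35N fused to peptides of 20 random codons. They were induced 24 hours with 100 μM copper sulfate, grown 7 days at 30°C without adenine and uracil, and their plasmid inserts from input and output were Illumina-sequenced. The nucleation score is the DiMSum log enrichment of output over input reads, centred on the mode score of non-aggregating sequences. Sequences with under 100 input reads were excluded.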

Substance	amyloid nucleation score
VYGPTVNFK	0.761 ± 0.25
LAHGPWGVSGDSV	0.019 ± 1.1
IVRRGAYSTGWMVMMLLQSL	0.859 ± 0.8
SYANCNLNVNTLREEVHERW	0.268 ± 0.62
ANKKIDSGNGLLDFQQNSQK	-0.249 ± 1
RTLFSRFYRRSMFNLSVKKK	inactive
NGMFLRTRCIRVFAVRRMLQ	1.12 ± 0.26
CSMMEPTMY	0.269 ± 0.41
QLYKRSE	0.256 ± 0.27
NRNPYILGYLRPPEVDYWWW	-0.627 ± 1.1
FLRYHNAGALENIRYVSCLC	-0.253 ± 0.56
CLPGSH	0.535 ± 0.74
SSVISLNILFFMGEPENSLL	6.424 ± 0.05
LNILHNFRKRTLFAAMFVLR	inactive
SSYTKMC	-0.934 ± 0.78
PPRGRTAINMTSKCQARVRP	0.966 ± 0.3
ISECR	-0.432 ± 1.1
DSSGFCMMVYYIQ	-0.365 ± 0.76
AVCITFLSSCAIFFDSPVRV	6.409 ± 0.047
PRWRDRVVNMKSDLDGV	5.51 ± 0.073
SPHLGLMCK	0.416 ± 0.8
PRGEFTWWSLGIIPNRWQCR	-0.771 ± 1.1

Substance	amyloid nucleation score
RDLSTGSPILEFHRCTRISG	-0.172 ± 0.76
STCSTGHRSLRTKKRNSILS	4.34 ± 0.096
LGLTSHTVPKCRCVGLMLMV	0.438 ± 0.29
RVKEMWGVYVGQHGYTANAL	0.842 ± 0.47
FHRCSYLVT	2.95 ± 0.09
SFGHATLYSFH	-0.058 ± 0.65
GFSRRGELHVSVYHIRDNVR	-1.11 ± 1.1
VTRPMDDTRVRVSNCVDWII	0.511 ± 0.38
VLTFRRMHD	0.398 ± 0.65
RSGCQMKCITYRGRAGGHLV	0.882 ± 0.31
YMRMIYCMFRGNCWVVIVEA	0.216 ± 0.49
RGSVVLNSVWVMLDMYCLLP	1.82 ± 0.28
YKLGVKPMKAG	-0.224 ± 0.79
VREYQSWPKGCCT	4.78 ± 0.065
RVVGPFFMVFVLTDMGFWVT	inactive
NSDCEVPFTWFVMLIGAPGG	-0.393 ± 0.76
IFFLSNLKRKPDDRGLVHKN	2.57 ± 0.14
VLCSCCLVVNIVNVLSVHSY	8.363 ± 0.06
YILNMFKETLDVLVLKRNCF	-1.18 ± 1.1
FFNLNYMGFHSDIGSLIYPC	inactive
LRAGLMHGWMRFRCTRVACV	-0.914 ± 0.64
RCSVVNWDNHVMLALDRVGY	inactive

Substance	amyloid nucleation score
VGSNKGAIIGLMIVGGVVIA	3.11 ± 0.16
FCRIAATTRHMHGGLVGRWS	1.04 ± 0.68
SLLRIRQYVVWRLG	0.079 ± 0.6
LKYDSKPSRVWMEICLYDAR	7.192 ± 0.054
LILRCLC	0.235 ± 0.8
VSNPSSQMNC	0.042 ± 0.16
SSRNASGYAWRVSNCVCVWG	7.9 ± 0.079
LLLLWYRNQPHITDAFRQEL	0.733 ± 0.44
DGRIVYEPSKSARFWKVKCL	-0.335 ± 0.79
VDRDSPKYVHA	0.917 ± 0.32
CTRSFVTQSDEDSPIGSDR	-1.39 ± 0.38
MHEAH	0.439 ± 0.46
QIDLL	-1.36 ± 1.1
VAYYEDVLSSYFIERW	-0.392 ± 0.29
VTFCMQVRAG	0.524 ± 0.33
LVSYSDVGWPLYWFCSVRVP	1.24 ± 0.2
PEYPVQIYMSMDL	-1.33 ± 0.78
CFLTNRTRNSYRPSGKPLDM	-0.702 ± 0.61
CSLAFVHRAIFSMSLLHSET	0.136 ± 0.4
LTGLFAGLKGKCLFTVNRGI	-0.318 ± 0.44
SFVWRWRRSEFHQVMRGGWP	2.15 ± 0.23
SMVFFGPFIFYVANPITSFV	5.54 ± 0.068

Substance	amyloid nucleation score
YCWWRSWEPKILRCSLVLVK	0.281 ± 0.44
LYLTRMFTTNAL	0.806 ± 0.58
MVWAQSTASMVLDLVFIAPS	1.75 ± 0.29
SFLFMKSTIRFIEL	-1.34 ± 0.36
MEVADC	0.591 ± 0.35
LSKHPYGCVL	0.862 ± 0.66
AMLDP	-0.191 ± 0.41
WWSARYRGTLD	1.57 ± 0.24
SGIWFQQDMMN	-0.258 ± 0.55
AFSFDAW	2.02 ± 0.14
RTVIQQVPAPLARAGVRWGW	3.17 ± 0.097
IDSDSFHDRSTSRHLFNGLA	inactive
TFNRFFRCSVFAFRA	4.53 ± 0.062
VEFSLSCHNMIFYVLD	6.762 ± 0.028
LWYGWCKRLYFVRCHYRVSM	-0.543 ± 0.55
SGTKPLCKQ	1.22 ± 0.34
VYIIVFRIWLPLHFWSSTLM	-0.354 ± 0.56
PLMSLLPPPNTR	-0.935 ± 0.44
DSSRAVLGVIRYSSEGSL	-0.34 ± 0.41
